# From the supplement of paper PMC10567573
# B1: NP_006221.1 (parent)
# chain: CQPISFSGFGAEDDDLGGLGLGP
# Variants of: B1
# Experiment: protein stability index of a GFP-peptide fusion (GPS, HEK-293T) (PSI 1-6); higher = more stable
# Conditions: c terminus: native
# 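Also: lentivirally expressed fusion library, cells FACS-sorted into six equal-sized GFP/DsRed ratio bins, PSI computed from sequencing read fractions per bin weighted by bin number.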
row,Variant,protein stability index
1,CQPISFSGFGAEDDDLCGLGLGP [G17C],2.2
2,CQPISFSGFGAEDDDLPGLGLGP [G17P],2.05
3,CQPISFSGFGAEDDDLMGLGLGP [G17M],1.7
4,CQPISFSGFGAEDDDLHGLGLGP [G17H],2.17
5,CQPISFSGFGAEDDDLQGLGLGP [G17Q],2.12
6,CQPISFSGFGAEDDDLAGLGLGP [G17A],2.16
7,CQPISFSGFGAEDDDLLGLGLGP [G17L],2.2
8,CQPISFSGFGAEDDDLFGLGLGP [G17F],2.08
9,CQPISFSGFGAEDDDLRGLGLGP [G17R],1.52
10,CQPISFSGFGAEDDDLSGLGLGP [G17S],2.26
11,CQPISFSGFGAEDDDLDGLGLGP [G17D],2.33
12,CQPISFSGFGAEDDDLEGLGLGP [G17E],2.36
13,CQPISFSGFGAEDDDLTGLGLGP [G17T],2.1
14,CQPISFSGFGAEDDDLKGLGLGP [G17K],2.08
15,CQPISFSGFGAEDDDLIGLGLGP [G17I],1.93
16,CQPISFSGFGAEDDDLNGLGLGP [G17N],2.36
17,CQPISFSGFGAEDDDLYGLGLGP [G17Y],2.15
18,CQPISFSGFGAEDDDLVGLGLGP [G17V],1.99
19,CQPISFSGFGAEDDDLWGLGLGP [G17W],2.46
20,CQPISFSGFGHEDDDLGGLGLGP [A11H],2.37
21,CQPISFSGFGVEDDDLGGLGLGP [A11V],2.33
22,CQPISFSGFGPEDDDLGGLGLGP [A11P],2.17
23,CQPISFSGFGGEDDDLGGLGLGP [A11G],2.36
24,CQPISFSGFGQEDDDLGGLGLGP [A11Q],2.32
25,CQPISFSGFGKEDDDLGGLGLGP [A11K],2.09

row,Variant,protein stability index
1,CQPISFSGFGIEDDDLGGLGLGP [A11I],2.65
2,CQPISFSGFGSEDDDLGGLGLGP [A11S],2.22
3,CQPISFSGFGWEDDDLGGLGLGP [A11W],2.06
4,CQPISFSGFGCEDDDLGGLGLGP [A11C],2.08
5,CQPISFSGFGMEDDDLGGLGLGP [A11M],2.04
6,CQPISFSGFGEEDDDLGGLGLGP [A11E],2.02
7,CQPISFSGFGTEDDDLGGLGLGP [A11T],2.26
8,CQPISFSGFGFEDDDLGGLGLGP [A11F],1.95
9,CQPISFSGFGLEDDDLGGLGLGP [A11L],1.81
10,CQPISFSGFGYEDDDLGGLGLGP [A11Y],2.06
11,CQPISFSGFGDEDDDLGGLGLGP [A11D],2.37
12,CQPISFSGFGNEDDDLGGLGLGP [A11N],2.09
13,CQPISFSGFGREDDDLGGLGLGP [A11R],2.32
14,CQPISFSGFGAEDDSLGGLGLGP [D15S],2.38
15,CQPISFSGFGAEDDELGGLGLGP [D15E],2.15
16,CQPISFSGFGAEDDFLGGLGLGP [D15F],2.32
17,CQPISFSGFGAEDDILGGLGLGP [D15I],2.4
18,CQPISFSGFGAEDDVLGGLGLGP [D15V],2.29
19,CQPISFSGFGAEDDRLGGLGLGP [D15R],2.13
20,CQPISFSGFGAEDDNLGGLGLGP [D15N],2.18
21,CQPISFSGFGAEDDLLGGLGLGP [D15L],2.41
22,CQPISFSGFGAEDDALGGLGLGP [D15A],2.28
23,CQPISFSGFGAEDDKLGGLGLGP [D15K],2.2
24,CQPISFSGFGAEDDHLGGLGLGP [D15H],2.08
25,CQPISFSGFGAEDDMLGGLGLGP [D15M],2.47

row,Variant,protein stability index
1,CQPISFSGFGAEDDTLGGLGLGP [D15T],2.52
2,CQPISFSGFGAEDDPLGGLGLGP [D15P],2.38
3,CQPISFSGFGAEDDYLGGLGLGP [D15Y],2.35
4,CQPISFSGFGAEDDQLGGLGLGP [D15Q],2.67
5,CQPISFSGFGAEDDCLGGLGLGP [D15C],2.18
6,CQPISFSGFGAEDDGLGGLGLGP [D15G],2.57
7,CQPISFSGFGAEDDWLGGLGLGP [D15W],2.44
8,CQPISFSGFGAEDRDLGGLGLGP [D14R],1.99
9,CQPISFSGFGAEDWDLGGLGLGP [D14W],2.48
10,CQPISFSGFGAEDMDLGGLGLGP [D14M],2.29
11,CQPISFSGFGAEDADLGGLGLGP [D14A],2.23
12,CQPISFSGFGAEDEDLGGLGLGP [D14E],2.17
13,CQPISFSGFGAEDCDLGGLGLGP [D14C],2.12
14,CQPISFSGFGAEDQDLGGLGLGP [D14Q],2.11
15,CQPISFSGFGAEDYDLGGLGLGP [D14Y],2.12
16,CQPISFSGFGAEDGDLGGLGLGP [D14G],2.13
17,CQPISFSGFGAEDSDLGGLGLGP [D14S],2.05
18,CQPISFSGFGAEDHDLGGLGLGP [D14H],2.27
19,CQPISFSGFGAEDNDLGGLGLGP [D14N],2.33
20,CQPISFSGFGAEDFDLGGLGLGP [D14F],2.51
21,CQPISFSGFGAEDPDLGGLGLGP [D14P],2.19
22,CQPISFSGFGAEDLDLGGLGLGP [D14L],2.44
23,CQPISFSGFGAEDVDLGGLGLGP [D14V],2.12
24,CQPISFSGFGAEDKDLGGLGLGP [D14K],2.46
25,CQPISFSGFGAEDTDLGGLGLGP [D14T],2.18

row,Variant,protein stability index
1,CQPISFSGFGAEDIDLGGLGLGP [D14I],2.21
2,CQPISFSGYGAEDDDLGGLGLGP [F9Y],2.01
3,CQPISFSGIGAEDDDLGGLGLGP [F9I],2.35
4,CQPISFSGRGAEDDDLGGLGLGP [F9R],2.04
5,CQPISFSGMGAEDDDLGGLGLGP [F9M],2.41
6,CQPISFSGNGAEDDDLGGLGLGP [F9N],2.87
7,CQPISFSGQGAEDDDLGGLGLGP [F9Q],2.54
8,CQPISFSGTGAEDDDLGGLGLGP [F9T],2.7
9,CQPISFSGPGAEDDDLGGLGLGP [F9P],3.23
10,CQPISFSGVGAEDDDLGGLGLGP [F9V],2.25
11,CQPISFSGSGAEDDDLGGLGLGP [F9S],2.56
12,CQPISFSGKGAEDDDLGGLGLGP [F9K],2.4
13,CQPISFSGLGAEDDDLGGLGLGP [F9L],2.23
14,CQPISFSGWGAEDDDLGGLGLGP [F9W],2.53
15,CQPISFSGFGAADDDLGGLGLGP [E12A],2.32
16,CQPISFSGFGATDDDLGGLGLGP [E12T],2.06
17,CQPISFSGFGARDDDLGGLGLGP [E12R],2.31
18,CQPISFSGFGAYDDDLGGLGLGP [E12Y],2.12
19,CQPISFSGFGALDDDLGGLGLGP [E12L],1.88
20,CQPISFSGFGADDDDLGGLGLGP [E12D],2.22
21,CQPISFSGFGAIDDDLGGLGLGP [E12I],1.94
22,CQPISFSGFGANDDDLGGLGLGP [E12N],2.32
